Measured values reported in the supplement of paper PMC9112550, “Optimization of the antimicrobial peptide Bac7 by deep mutational scanning” (BMC Biology, 2022).

Each sequence was assayed on Escherichia coli TOP10 (assay: shrunken log2 fold change of peptide-encoding DNA abundance (4.5 h post-induction vs induction); higher = less antimicrobial activity (less host growth inhibition)). Settings: time post-induction: 4.5 h; library: site-saturation at positions 5, 18, 19, 20.
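Note: peptides expressed intracellularly from a pBAD plasmid library in pooled LB shake-flask culture, induced with 0.3% L-arabinose, DNA abundance read by NGS, three biological replicates, DESeq2 with apeglm shrinkage.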

| Sequence | shrunken log2 fold change |
| --- | --- |
| RRIRGRPPRLPRPRPRPRRCPRP | 0.548 |
| RRIRQRPPRLPRPRPRPVFNPRP | -0.291 |
| RRIRFRPPRLPRPRPRPHAVPRP | -0.0464 |
| RRIRNRPPRLPRPRPRPVWIPRP | -0.111 |
| RRIRQRPPRLPRPRPRPCAEPRP | -0.135 |
| RRIRFRPPRLPRPRPRPMPEPRP | -0.0117 |
| RRIRTRPPRLPRPRPRPISDPRP | -0.0355 |
| RRIRVRPPRLPRPRPRPFPPPRP | -0.0462 |
| RRIRRRPPRLPRPRPRPNKNPRP | 0.153 |
| RRIRARPPRLPRPRPRPYCIPRP | -0.151 |
| RRIRLRPPRLPRPRPRPILRPRP | -0.156 |
| RRIRPRPPRLPRPRPRPNMEPRP | 0.0784 |
| RRIRHRPPRLPRPRPRPWDRPRP | -0.0232 |
| RRIRIRPPRLPRPRPRPIDPPRP | -0.142 |
| RRIRKRPPRLPRPRPRPEGEPRP | -0.0225 |
| RRIRNRPPRLPRPRPRPDCYPRP | -0.871 |
| RRIRTRPPRLPRPRPRPERQPRP | -0.0252 |
| RRIRTRPPRLPRPRPRPYVVPRP | -0.738 |
| RRIRNRPPRLPRPRPRPFWTPRP | -0.132 |
| RRIRMRPPRLPRPRPRPQWCPRP | -0.0474 |
| RRIRQRPPRLPRPRPRPMWVPRP | 0.551 |
| RRIRGRPPRLPRPRPRPNKMPRP | 0.162 |
| RRIRIRPPRLPRPRPRPATNPRP | -0.339 |
| RRIRIRPPRLPRPRPRPYRTPRP | 0.0026 |
| RRIRLRPPRLPRPRPRPQMLPRP | 0.0385 |

| Sequence | shrunken log2 fold change |
| --- | --- |
| RRIRTRPPRLPRPRPRPLGKPRP | 0.0663 |
| RRIRDRPPRLPRPRPRPCHNPRP | -0.184 |
| RRIRCRPPRLPRPRPRPHTWPRP | -0.216 |
| RRIRPRPPRLPRPRPRPNCAPRP | 0.208 |
| RRIRCRPPRLPRPRPRPCDLPRP | 3.04 |
| RRIRCRPPRLPRPRPRPIDNPRP | -0.755 |
| RRIRARPPRLPRPRPRPEANPRP | 1.69 |
| RRIRCRPPRLPRPRPRPFSIPRP | -0.261 |
| RRIRWRPPRLPRPRPRPWETPRP | -0.01 |
| RRIRPRPPRLPRPRPRPQSVPRP | -0.0354 |
| RRIRPRPPRLPRPRPRPSMHPRP | 0.828 |
| RRIRIRPPRLPRPRPRPWHRPRP | 0.0544 |
| RRIRVRPPRLPRPRPRPKEKPRP | -0.0337 |
| RRIRRRPPRLPRPRPRPVVNPRP | 0.61 |
| RRIRVRPPRLPRPRPRPIDVPRP | -0.0749 |
| RRIRLRPPRLPRPRPRPDSCPRP | -0.851 |
| RRIRMRPPRLPRPRPRPRWGPRP | 0.279 |
| RRIRTRPPRLPRPRPRPRVCPRP | 0.369 |
| RRIRIRPPRLPRPRPRPDRQPRP | 0.0357 |
| RRIRERPPRLPRPRPRPNEQPRP | -0.215 |
| RRIRIRPPRLPRPRPRPQYVPRP | -0.0421 |
| RRIRERPPRLPRPRPRPRGKPRP | 0.0142 |
| RRIRQRPPRLPRPRPRPEQSPRP | 0.142 |
| RRIRQRPPRLPRPRPRPGLDPRP | 0.255 |
| RRIRYRPPRLPRPRPRPRIYPRP | -0.569 |

| Sequence | shrunken log2 fold change |
| --- | --- |
| RRIRFRPPRLPRPRPRPDNPPRP | -0.0747 |
| RRIRARPPRLPRPRPRPKFLPRP | 0.288 |
| RRIRIRPPRLPRPRPRPYYAPRP | -0.949 |
| RRIRSRPPRLPRPRPRPAPPPRP | 0.458 |
| RRIRQRPPRLPRPRPRPIHDPRP | 0.0242 |
| RRIRYRPPRLPRPRPRPMHYPRP | -1.03 |
| RRIRFRPPRLPRPRPRPPGGPRP | 0.782 |
| RRIRRRPPRLPRPRPRPPVEPRP | 0.593 |
| RRIRWRPPRLPRPRPRPEVHPRP | -0.039 |
| RRIRVRPPRLPRPRPRPWLYPRP | -0.157 |
| RRIRVRPPRLPRPRPRPAEWPRP | 0.129 |
| RRIRARPPRLPRPRPRPHPWPRP | -0.00896 |
| RRIRSRPPRLPRPRPRPHLVPRP | -0.118 |
| RRIRKRPPRLPRPRPRPLNNPRP | -0.0972 |
| RRIRNRPPRLPRPRPRPHSRPRP | -0.0742 |
| RRIRARPPRLPRPRPRPSKSPRP | 0.0305 |
| RRIRGRPPRLPRPRPRPALPPRP | 0.696 |
| RRIRKRPPRLPRPRPRPHKSPRP | 0.0371 |
| RRIRHRPPRLPRPRPRPLFMPRP | -0.492 |
| RRIRARPPRLPRPRPRPWDQPRP | 0.353 |
| RRIRYRPPRLPRPRPRPEHAPRP | 0.0635 |
| RRIRQRPPRLPRPRPRPTALPRP | -0.0491 |
| RRIRQRPPRLPRPRPRPCFQPRP | -0.252 |
| RRIRNRPPRLPRPRPRPECKPRP | 0.0615 |
| RRIRYRPPRLPRPRPRPQFLPRP | -0.132 |

| Sequence | shrunken log2 fold change |
| --- | --- |
| RRIRKRPPRLPRPRPRPRESPRP | 0.159 |
| RRIRSRPPRLPRPRPRPWIFPRP | -0.14 |
| RRIRNRPPRLPRPRPRPVWGPRP | 0.283 |
| RRIRYRPPRLPRPRPRPNSVPRP | -0.257 |
| RRIRCRPPRLPRPRPRPAYQPRP | -0.0687 |
| RRIRWRPPRLPRPRPRPCCCPRP | 0.129 |
| RRIRLRPPRLPRPRPRPSKNPRP | -0.296 |
| RRIRARPPRLPRPRPRPGDLPRP | 0.796 |
| RRIRARPPRLPRPRPRPPETPRP | 0.55 |
| RRIRYRPPRLPRPRPRPEAAPRP | 0.319 |
| RRIRRRPPRLPRPRPRPRTPPRP | 0.616 |
| RRIRWRPPRLPRPRPRPYYMPRP | -0.258 |
| RRIRWRPPRLPRPRPRPFPDPRP | 0.116 |
| RRIRIRPPRLPRPRPRPHQIPRP | -0.423 |
| RRIRNRPPRLPRPRPRPVMMPRP | -0.198 |
| RRIRQRPPRLPRPRPRPCEQPRP | -0.105 |
| RRIRWRPPRLPRPRPRPPMAPRP | 0.598 |
| RRIRKRPPRLPRPRPRPKKDPRP | 0.337 |
| RRIRERPPRLPRPRPRPSTHPRP | -0.663 |
| RRIRQRPPRLPRPRPRPARLPRP | 0.0512 |
| RRIRFRPPRLPRPRPRPYERPRP | -0.119 |
| RRIRVRPPRLPRPRPRPFFHPRP | 0.145 |
| RRIRQRPPRLPRPRPRPHHEPRP | 0.0974 |
| RRIRHRPPRLPRPRPRPAMFPRP | 0.0207 |
| RRIRPRPPRLPRPRPRPNETPRP | 0.0335 |

| Sequence | shrunken log2 fold change |
| --- | --- |
| RRIRLRPPRLPRPRPRPFEMPRP | -0.00193 |
| RRIRMRPPRLPRPRPRPHANPRP | 0.0143 |
| RRIRERPPRLPRPRPRPEYRPRP | -0.00146 |
| RRIRFRPPRLPRPRPRPYNKPRP | -0.955 |
| RRIRHRPPRLPRPRPRPDYVPRP | -0.165 |
| RRIRYRPPRLPRPRPRPRDMPRP | -0.339 |
| RRIRVRPPRLPRPRPRPIKIPRP | -0.251 |
| RRIRSRPPRLPRPRPRPLVPPRP | -0.0319 |
| RRIRKRPPRLPRPRPRPCCTPRP | -0.0454 |
| RRIRTRPPRLPRPRPRPWLGPRP | -0.00306 |
| RRIRMRPPRLPRPRPRPLNWPRP | 0.225 |
| RRIRKRPPRLPRPRPRPHGYPRP | 0.0773 |
| RRIRARPPRLPRPRPRPLLVPRP | 0.284 |
| RRIRERPPRLPRPRPRPQHSPRP | -0.597 |
| RRIRWRPPRLPRPRPRPWKYPRP | -0.679 |
| RRIRRRPPRLPRPRPRPPVNPRP | 0.282 |
| RRIRMRPPRLPRPRPRPQAQPRP | 0.299 |
| RRIRMRPPRLPRPRPRPIIHPRP | -0.136 |
| RRIRYRPPRLPRPRPRPAIDPRP | -0.0997 |
| RRIRARPPRLPRPRPRPVTSPRP | 0.293 |
| RRIRHRPPRLPRPRPRPDSWPRP | -0.0468 |
| RRIRARPPRLPRPRPRPWKAPRP | -0.0198 |
| RRIRLRPPRLPRPRPRPMEFPRP | -0.00133 |
| RRIRFRPPRLPRPRPRPEFEPRP | 0.122 |
| RRIRSRPPRLPRPRPRPAKGPRP | 0.176 |

| Sequence | shrunken log2 fold change |
| --- | --- |
| RRIRPRPPRLPRPRPRPVLHPRP | -0.1 |
| RRIRTRPPRLPRPRPRPAWIPRP | -0.27 |
| RRIRLRPPRLPRPRPRPVESPRP | -0.0112 |
| RRIRFRPPRLPRPRPRPDPSPRP | -0.323 |
| RRIRLRPPRLPRPRPRPFNDPRP | 0.0825 |
| RRIRTRPPRLPRPRPRPRMSPRP | -0.259 |
| RRIRFRPPRLPRPRPRPIGSPRP | -0.241 |
| RRIRPRPPRLPRPRPRPHCPPRP | 0.0157 |
| RRIRHRPPRLPRPRPRPDEVPRP | -0.00134 |
| RRIRTRPPRLPRPRPRPRKWPRP | 0.215 |
| RRIRGRPPRLPRPRPRPQFVPRP | 0.0536 |
| RRIRDRPPRLPRPRPRPEWCPRP | 0.272 |
| RRIRYRPPRLPRPRPRPGIRPRP | 0.0108 |
| RRIRSRPPRLPRPRPRPRTWPRP | 0.0747 |
| RRIRERPPRLPRPRPRPRRDPRP | 0.0233 |
| RRIRLRPPRLPRPRPRPQFVPRP | -0.0035 |
| RRIRKRPPRLPRPRPRPLGLPRP | 0.159 |
| RRIRWRPPRLPRPRPRPPIFPRP | 0.488 |
| RRIRPRPPRLPRPRPRPPSWPRP | 0.54 |
| RRIRGRPPRLPRPRPRPGARPRP | 0.953 |
| RRIRPRPPRLPRPRPRPNEHPRP | -0.263 |
| RRIRGRPPRLPRPRPRPIQCPRP | 0.0816 |
| RRIRKRPPRLPRPRPRPAALPRP | 0.831 |
| RRIRRRPPRLPRPRPRPNACPRP | -0.00291 |
| RRIRIRPPRLPRPRPRPSNGPRP | 0.0107 |
